Data: patent publication US20230301998
Where a chain is given by its changes, count along the chain named.

Experiments:
V5-tagged IFI204 R12A = tested on: T1, V5-tagged IFI204 R12A
T1 sequence: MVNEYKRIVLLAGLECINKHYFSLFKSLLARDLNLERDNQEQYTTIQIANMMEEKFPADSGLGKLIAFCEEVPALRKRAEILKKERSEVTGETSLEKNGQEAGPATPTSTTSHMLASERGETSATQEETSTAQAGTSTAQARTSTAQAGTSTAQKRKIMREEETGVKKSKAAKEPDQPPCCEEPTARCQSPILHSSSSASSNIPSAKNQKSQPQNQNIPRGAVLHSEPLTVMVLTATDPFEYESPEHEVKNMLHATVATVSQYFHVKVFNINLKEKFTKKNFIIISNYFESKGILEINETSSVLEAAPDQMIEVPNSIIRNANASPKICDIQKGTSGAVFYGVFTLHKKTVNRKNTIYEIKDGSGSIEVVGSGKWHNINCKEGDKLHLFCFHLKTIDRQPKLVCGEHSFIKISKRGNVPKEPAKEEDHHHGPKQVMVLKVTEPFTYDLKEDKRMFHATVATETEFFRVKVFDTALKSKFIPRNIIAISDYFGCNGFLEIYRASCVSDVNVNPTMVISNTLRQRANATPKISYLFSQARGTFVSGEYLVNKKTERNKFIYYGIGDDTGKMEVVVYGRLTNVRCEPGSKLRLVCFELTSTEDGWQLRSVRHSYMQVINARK

V5-tagged IFI204 R538A = tested on: T2, V5-tagged IFI204 R538A
T2 sequence: T1 sequence with A12R, R538A

V5-tagged IFI204 WT = tested on: T3, V5-tagged IFI204 WT
T3 sequence: T1 sequence with A12R

[1] = tested on: T4, V5-tagged IFI204 RR12/538AA
T4 sequence: T1 sequence with R538A

recombinant active PRMT5 plus WDR77
in vitro methylation (3H-SAM, autoradiography) (V5-tagged IFI204 R12A): Immunopurified WT IFI204, but not a mutant form lacking either Arg12, Arg538 or both, was methylated in vitro by recombinant PRMT5 | in vitro methylation (3H-SAM, autoradiography) (V5-tagged IFI204 R538A): Immunopurified WT IFI204, but not a mutant form lacking either Arg12, Arg538 or both, was methylated in vitro by recombinant PRMT5 | in vitro methylation (3H-SAM, autoradiography) (V5-tagged IFI204 WT): IFI204 WT protein was methylated by PRMT5 /WDR77 | in vitro methylation (3H-SAM, autoradiography) [1]: Immunopurified WT IFI204, but not a mutant form lacking either Arg12, Arg538 or both, was methylated in vitro by recombinant PRMT5
